Experimental data published in patent publication US20060073152A1.

Columns and labels:
Assay in all cases: peptide competition for albumin
[1] = molecular target: T1, rat serum albumin (rat), P02770
T1 chain: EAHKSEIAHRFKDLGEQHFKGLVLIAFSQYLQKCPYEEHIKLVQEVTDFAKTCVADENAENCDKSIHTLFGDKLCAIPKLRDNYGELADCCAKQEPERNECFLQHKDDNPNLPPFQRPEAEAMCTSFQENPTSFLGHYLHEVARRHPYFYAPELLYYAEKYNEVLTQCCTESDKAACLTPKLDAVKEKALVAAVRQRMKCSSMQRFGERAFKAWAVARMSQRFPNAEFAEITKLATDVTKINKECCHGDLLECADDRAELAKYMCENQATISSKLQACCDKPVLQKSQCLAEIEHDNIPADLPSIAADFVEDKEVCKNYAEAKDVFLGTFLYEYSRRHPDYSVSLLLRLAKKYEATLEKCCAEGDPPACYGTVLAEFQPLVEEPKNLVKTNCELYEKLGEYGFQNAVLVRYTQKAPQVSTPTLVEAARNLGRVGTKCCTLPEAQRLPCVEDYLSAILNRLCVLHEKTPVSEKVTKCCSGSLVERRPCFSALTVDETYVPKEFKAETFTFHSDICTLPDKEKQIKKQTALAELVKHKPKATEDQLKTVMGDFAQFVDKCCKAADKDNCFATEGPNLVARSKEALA

[2] = molecular target: mouse serum albumin (mouse), P07724
[3] = molecular target: T2, rabbit serum albumin (rabbit), P49065
T2 chain: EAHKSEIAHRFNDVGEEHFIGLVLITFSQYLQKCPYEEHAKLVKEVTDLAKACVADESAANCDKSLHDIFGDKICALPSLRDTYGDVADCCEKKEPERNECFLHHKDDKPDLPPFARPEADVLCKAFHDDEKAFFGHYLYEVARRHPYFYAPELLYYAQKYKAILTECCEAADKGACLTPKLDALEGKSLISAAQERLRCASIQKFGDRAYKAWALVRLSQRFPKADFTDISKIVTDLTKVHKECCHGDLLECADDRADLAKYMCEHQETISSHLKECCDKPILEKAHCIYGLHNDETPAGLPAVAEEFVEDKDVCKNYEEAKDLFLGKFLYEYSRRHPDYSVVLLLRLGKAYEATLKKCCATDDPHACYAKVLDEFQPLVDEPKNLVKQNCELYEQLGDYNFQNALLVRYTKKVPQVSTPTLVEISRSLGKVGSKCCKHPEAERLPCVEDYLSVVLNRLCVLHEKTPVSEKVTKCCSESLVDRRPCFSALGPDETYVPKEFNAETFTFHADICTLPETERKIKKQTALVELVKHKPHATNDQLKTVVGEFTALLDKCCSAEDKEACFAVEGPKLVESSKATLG

Sequence of mouse serum albumin (mouse), P07724 (P07724 25-608 limits assumed): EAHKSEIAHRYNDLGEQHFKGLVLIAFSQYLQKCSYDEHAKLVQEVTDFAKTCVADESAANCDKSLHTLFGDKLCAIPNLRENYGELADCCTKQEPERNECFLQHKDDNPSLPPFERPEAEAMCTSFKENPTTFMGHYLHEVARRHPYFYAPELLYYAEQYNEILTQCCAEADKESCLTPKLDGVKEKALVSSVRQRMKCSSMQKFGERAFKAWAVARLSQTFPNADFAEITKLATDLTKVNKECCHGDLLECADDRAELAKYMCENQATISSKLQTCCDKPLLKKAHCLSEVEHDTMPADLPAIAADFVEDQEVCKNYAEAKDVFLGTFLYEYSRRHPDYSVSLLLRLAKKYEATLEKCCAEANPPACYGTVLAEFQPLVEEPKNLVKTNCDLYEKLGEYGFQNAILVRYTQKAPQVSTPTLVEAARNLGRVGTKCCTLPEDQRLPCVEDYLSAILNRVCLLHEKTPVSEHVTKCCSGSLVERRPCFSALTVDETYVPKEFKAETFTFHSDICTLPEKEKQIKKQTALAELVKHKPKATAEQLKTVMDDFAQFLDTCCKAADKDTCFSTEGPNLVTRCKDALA

IC50 [1]: 2480 nM
IC50 [2]: 188 nM
IC50 [3]: 3200 nM
Binder: RLMEDICLARWGCLWEDD (modifications not checked) [SA13]
